From article PMC8099430, “CM1-driven assembly and activation of yeast γ-tubulin small complex underlies microtubule nucleation” (eLife, 2021)
Numbering of substitutions follows the chain as printed. Names may count otherwise.

T1: Spc98p (S. cerevisiae, UniProt P53540 1-846)
T1 construct: Spc98p, S. cerevisiae homologue of GCP3; the 674 a.a. built in the model are said to be 80% of the protein; also called GCP3 homologue; source: pFastBac-Spc98p construct; purified as part of γTuSC, prepared essentially as described (Vinh et al., 2002; Lyon et al., 2016)
T1 sequence: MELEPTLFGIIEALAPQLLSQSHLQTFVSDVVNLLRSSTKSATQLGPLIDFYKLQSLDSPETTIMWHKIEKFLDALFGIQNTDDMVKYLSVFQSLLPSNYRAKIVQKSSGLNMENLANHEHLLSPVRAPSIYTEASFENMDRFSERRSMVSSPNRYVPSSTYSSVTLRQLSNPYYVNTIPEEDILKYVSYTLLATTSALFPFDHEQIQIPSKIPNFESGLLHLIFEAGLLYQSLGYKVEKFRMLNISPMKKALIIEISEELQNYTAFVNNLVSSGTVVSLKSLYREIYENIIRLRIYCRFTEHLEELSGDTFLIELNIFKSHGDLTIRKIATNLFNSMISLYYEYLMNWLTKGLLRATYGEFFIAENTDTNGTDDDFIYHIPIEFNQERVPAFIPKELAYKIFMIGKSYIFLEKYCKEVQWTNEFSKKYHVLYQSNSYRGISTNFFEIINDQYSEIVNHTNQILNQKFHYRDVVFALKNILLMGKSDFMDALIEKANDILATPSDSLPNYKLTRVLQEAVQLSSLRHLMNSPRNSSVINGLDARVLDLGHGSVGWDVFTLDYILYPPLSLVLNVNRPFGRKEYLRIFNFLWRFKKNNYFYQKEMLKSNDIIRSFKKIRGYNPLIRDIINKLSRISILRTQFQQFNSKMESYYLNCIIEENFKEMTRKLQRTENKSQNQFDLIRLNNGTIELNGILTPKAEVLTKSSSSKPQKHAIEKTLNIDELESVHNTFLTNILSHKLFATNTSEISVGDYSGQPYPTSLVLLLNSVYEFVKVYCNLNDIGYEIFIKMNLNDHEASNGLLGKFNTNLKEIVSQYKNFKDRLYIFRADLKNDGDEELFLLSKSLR

B1: Spc97p (natural protein, S. cerevisiae)
chain: MEIKEVDDRAELLRYTNNIPLLGKLVNHQPLWSTNPKLKSFSLEKISAPDQRRVQEALVVKDLLNVLIGLEGTYIRYFNDYEPSDPETPIEFKIAKKMDPSFKTFSRRIVRYGKQYMILTRAYEKWSDTSFGMVLQRFAYEIRRFLEDVYLKTLVERLERDFNKVPNFSIRELEQIINETEVNKQMELLYNIYEEIFREIEERRTNQSSQEDFNNFMDSMKNESSLHLRLMVAFDTTVYPVPKGGAILKIFQQKILENLGDRSSVMFLKKLLNNISQDYCTMLYEWLTQGILNDPYQEFMTYDDLEGKTDNIFDTRDRAWDTQYFIRKDVLLRDCDSEEDKNLLFKMLRTGILLKVVRASLQIPTIPSNSSDITIQEINDFADLMEGSNLELYVDKCYSRANEIFLKLFFQGYDLINVLKHLQQIFLGYQSGHNVLKFLTKNMGELTKHYRNDNNANYDKLLQNFELERQSENPNNLMRQLLMIQFDTETLPQVLSHYLQIYPEVPENNSANDDSDPLMHANNFKNMNAILFDELSKERTGAYHGSNLELYTPKSAIYHLKFDINIPYPLNIIISRTCMIKYQIILRYQLVLQYHSRLLDETWMDLNKTPSWKYRGYSHTVKRRIVRATRVLHAKMNHFIKTIMEYFNQNVIDKEVYSLEKCYRNPTLAVAIQNELEGGLTNIMTNRCLSDLIPLQLQIFDIVYKFCKFIKSMRAKLCQLDPVLYEKHKSGMMKTLNEGYRTNNGGQEDVGYQEDAALELIQKLIEYISNASSIFRKCLINFTQELSTEKFDFYDSSSVDAAGIERVLYSIVPPRSASASSQR
notes: Spc97p, S. cerevisiae homologue of GCP2; the 712 a.a. built in the model are said to be 87% of the protein; also called GCP2 homologue; source: pFastBac-Spc97p construct; purified as part of γTuSC, prepared essentially as described (Vinh et al., 2002; Lyon et al., 2016)
B2: Spc110p^1-220 (domain or fragment, S. cerevisiae, UniProt P32380 1-220, looked up)
chain: MDEASHLPNGSLKNMEFTPVGFIKSKRNTTQTQVVSPTKVPNANNGDENEGPVKKRQRRSIDDTIDSTRLFSEASQFDDSFPEIKANIPPSPRSGNVDKSRKRNLIDDLKKDVPMSQPLKEQEVREHQMKKERFDRALESKLLGKRHITYANSDISNKELYINEIKSLKHEIKELRKEKNDTLNNYDTLEEETDDLKNRLQALEKELDAKNKIVNSRKVD
notes: also called Spc110^1-220; N-terminal domain of Spc110p; source: pFastBac-GST-Spc110p^1-220 construct; purified in filaments with γTuSC, prepared essentially as described (Kollman et al., 2010; Kollman et al., 2015)
B3: γ-tubulin (Tub4p) (natural protein, S. cerevisiae)
chain: MGGEIITLQAGQCGNHVGKFLWSQLAKEHAIGTDGLSQLPDSSTERDDDTKPFFRENSRNKFTPRAIMMDSEPSVIADVENTFRGFFDPRNTWVASDGASAGNSWANGYDIGTRNQDDILNKIDKEIDSTDNFEGFQLLHSVAGGTGSGLGSNLLEALCDRYPKKILTTYSVFPARSSEVVVQSYNTILALRRLIEDSDATVVFDNASLLNISGKVFRNPNIDLQHTNQLISTIISSVTNSIRFPSYMYSSMSSIYSTLIPSPELHFLSPSFTPFTSDYIHDDIAHKGHSSYDVMLDLLDPSNSLVSTAMNNPTYFNVYNTIIGNVEPRQISRAMTKLQQRIKFPSWSSSAMHVNIGRRSPYLPLQPNENEVSGMMLSNMSTVVNVFENACNTFDKVFAKGAFLNNYNVGDLFQSMQNVQDEFAESREVVQSLMEDYVAAEQDSYLDDVLVDDENMVGELEEDLDADGDHKLV
notes: Tub4p, S. cerevisiae γ-tubulin; the 453 a.a. built in the model are said to be 96% of the protein; source: pFastBac-Tub4p construct; purified as part of γTuSC, prepared essentially as described (Vinh et al., 2002; Lyon et al., 2016)
B4: Tub4p S58C/G288C (natural protein, S. cerevisiae)
chain: B3 chain with S58C, G288C
modifications: engineered cysteines oxidised to disulfides (overnight dialysis into 1 mM oxidized glutathione)
notes: Tub4p, S. cerevisiae γ-tubulin, with S58C and G288C; also called γ-tubulin engineered with disulfides; γ-tubulin of γTuSC^SS / γTuRC^SS; source: pFastBac-Tub4p^S58C/G288C construct (Kollman et al., 2015); purified in filaments prepared essentially as described (Kollman et al., 2010; Kollman et al., 2015)
B5: Spc110p^1-401-GST (domain or fragment, S. cerevisiae, UniProt P32380 1-401, looked up)
chain: MDEASHLPNGSLKNMEFTPVGFIKSKRNTTQTQVVSPTKVPNANNGDENEGPVKKRQRRSIDDTIDSTRLFSEASQFDDSFPEIKANIPPSPRSGNVDKSRKRNLIDDLKKDVPMSQPLKEQEVREHQMKKERFDRALESKLLGKRHITYANSDISNKELYINEIKSLKHEIKELRKEKNDTLNNYDTLEEETDDLKNRLQALEKELDAKNKIVNSRKVDDHSGCIEEREQMERKLAELERKLKTVKDQVLELENNSDVQSLKLRSKEDELKNLMNELNELKSNAEEKDTQLEFKKNELRKRTNELNELKIKSDEMDLQLKQKQNESKRLKDELNELETKFSENGSQSSAKENELKMLKNKIAELEEEISTKNSQLIAKEGKLASLMAQLTQLESKLNQRD
notes: Spc110p, S. cerevisiae, residues 1-401; also called Spc110^1-401-GST; Spc110^1-401; not shown: GST, C-terminal, kept

Tests used:
[1] = molecular target: γTuSC (Saccharomyces cerevisiae) (UniProt P53378); settings: cited from earlier work
Spc98p [2] = molecular target: T1, Spc98p; experiment: cryo-EM structure; γTuRC^WT helical filaments of γTuSC with Spc110p^1-220 (open and closed classes); 40 mM HEPES pH 7.5, 2 mM MgCl2, 1 mM EGTA, 1 mM GDP, 100 mM KCl, 1 mM DTT, 2.5% glycerol; settings: both partners purified
[3] = molecular target: the molecule itself; experiment: as above
Spc97p [4] = molecular target: B1; experiment: cryo-EM structure; γTuRC^SS helical filaments (disulfide-trapped closed state) of γTuSC^SS with Spc110p^1-220; 40 mM HEPES pH 7.5, 2 mM MgCl2, 1 mM EGTA, 0.5 mM GTP, 100 mM KCl, 1 mM oxidized glutathione, 2.5% glycerol; settings: both partners purified
Spc98p [5] = molecular target: T1, Spc98p; experiment: as above; settings: both partners purified
Spc97p [6] = molecular target: B1; experiment: cryo-EM structure; γTuRC^WT helical filaments of γTuSC with Spc110p^1-220 (open and closed classes); 40 mM HEPES pH 7.5, 2 mM MgCl2, 1 mM EGTA, 1 mM GDP, 100 mM KCl, 1 mM DTT, 2.5% glycerol; settings: both partners purified
Spc97p [7] = molecular target: B1; experiment: cross-linking; XL-MS; DSS (0.44 mM, 3 min, RT) or EDC (5.4 mM plus 2.7 mM Sulfo-NHS, 30 min, RT); 0.4 µM γTuSC and 0.8 µM Spc110; 40 mM HEPES pH 7.0, 150 mM KCl; settings: both partners purified

| binding result (Spc98p [2]) | binding result (Spc97p [4]) | binding result (Spc98p [5]) | Molecule | also measured |
| --- | --- | --- | --- | --- |
|  |  |  | γTuSC (from UniProt P53378) | Kd [1]: 2000 nM |
| binds |  |  | B1 |  |
|  | binds | binds | B2 | binding result [3]: binds |
| binds |  |  | B3 | binding result (Spc97p [6]): binds |
|  | binds | binds | B4 |  |
|  |  |  | B5 | binding result (Spc97p [7]): binds |
